Experimental data as given in article PMC7043024.

Biological target: LSD1 (lysine specific demethylase 1), full length (UniProt O60341)

H3K4me 1-21 peptide
K (M,post) (post-equilibrium apparent Michaelis-Menten constant) of the demethylation of K4meK9 by 200 nM CoREST ternary complex, APO, real-time 1H NMR assay: 2.3 µM | K (M,post) (post-equilibrium apparent Michaelis-Menten constant) of the demethylation of K4meK9 by the CoREST ternary complex pre-equilibrated with 5 μM MS275 HDAC inhibitor, real-time 1H NMR assay: 9.2 µM
